Source: patent US20200140552A1 (Sanofi, published 2020)
Numbering of substitutions follows the chain as printed.

Assays:
[1] = biological target: T1, cynomolgus monkey CD38 expressed on the surface of recombinant murine preB::300.19 cells (cynomolgus monkey, UniProt Q5VAN0 1-301); test: flow cytometry on cCD38-expressing murine preB::300.19 cells, apparent KD (called EC50 in paragraph 336)
T1 construct: whole, on cells; also called cCD38-expressing cells; cells expressing cynomolgus CD38

[2] = biological target: T2, recombinant human CD38 (SPR antigen of Example 2) (human, UniProt P28907 43-300); test: SPR against recombinant protein; the cell gives two values for mid/low, the first taken as the CD3mid construct
[3] = biological target: T1, cynomolgus monkey CD38 expressed on the …; test: flow cytometry on cCD38-expressing murine preB::300.19 cells
[4] = biological target: T3, human CD3 (SPR antigen of Example 2) (human); test: SPR; KD rounded to integer; the cell gives two values for mid/low, the first taken as the CD3mid construct
T3 chain: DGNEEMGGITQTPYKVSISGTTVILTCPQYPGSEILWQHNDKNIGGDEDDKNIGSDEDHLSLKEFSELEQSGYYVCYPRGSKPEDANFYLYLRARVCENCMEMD

[5] = biological target: T2, recombinant human CD38 (SPR antigen of …); test: as above
[6] = biological target: human CD28 (SPR antigen of Example 2) (human, UniProt P10747 19-152); test: as above
[7] = biological target: T4, human CD38 expressed on the surface of recombinant murine preB::300.19 cells (human, UniProt P28907 1-300); test: flow cytometry on hCD38-expressing murine preB::300.19 cells, apparent KD (called EC50 in paragraph 336)
T4 construct: whole, on cells; also called hCD38-expressing cells; cells expressing human CD38

[8] = biological target: T4, human CD38 expressed on the surface of …; test: flow cytometry on hCD38-expressing murine preB::300.19 cells
[9] = biological target: T2, recombinant human CD38 (SPR antigen of …); test: SPR, target binding with the other two targets in saturation
[10] = biological target: T2, recombinant human CD38 (SPR antigen of …); test: SPR, target binding without other targets present
[11] = biological target: T4, human CD38 expressed on the surface of …; test: flow cytometry on hCD38-expressing murine preB::300.19 cells, apparent KD (called EC50 in paragraph 335)
cCD38-his (SEQ ID NO: 4) = biological target: T5, cCD38-his (SEQ ID NO: 4) (cynomolgus monkey, UniProt Q5VAN0 46-301); test: SPR (summary table; Table K value rounded)
T5 construct: also called cyno CD38-histag (ID3); soluble extracellular domain of cynomolgusCD38

hCD38-his (SEQ ID NO: 2) = biological target: T6, hCD38-his (SEQ ID NO: 2) (human, UniProt P28907 45-300); test: SPR (summary table; Table K value rounded)
T6 construct: also called human CD38-histag (ID2); soluble extracellular domain of humanCD38

[12] = biological target: T4, human CD38 expressed on the surface of …; test: flow cytometry on CD38-expressing murine preB::300.19 cells, apparent KD

B1: CD38VH1xCD28cvnxCD3mid trispecific binding protein (other)
VH 1: QVQLQESGPGLVKPSQTLSLTCTVSGFSLSDYGVHWVRQPPGKGLEWLGVIWAGGGTNYNPSLKSRKTISKDTSKNQVSLKLSSVTAADTAVYYCARDKGYSYYYSMDYWGQGTTVTVS
VL 1: DIVLTQSPASLAVSPGQRATITCRASESVEYYVTSLMQWYQQKPGQPPKLLIFAASNVESGVPARFSGSGSGTDFTLTINPVEANDVANYYCQQSRKVPYTFGQGTKLEIK
VH 2: QVQLVESGGGVVQPGRSLRLSCAASGFTFTKAWMHWVRQAPGKQLEWVAQIKDKSNSYATYYADSVKGRFTISRDDSKNTLYLQMNSLRAEDTAVYYCRGVYYALSPFDYWGQGTLVTVSS
VL 2: DIVMTQTPLSLSVTPGQPASISCKSSQSLVHNNANTYLSWYLQKPGQSPQSLIYKVSNRFSGVPDRFSGSGSGTDFTLKISRVEAEDVGVYYCGQGTQYPFTFGSGTKVEIK
VH 3: QVQLVQSGAEVVKPGASVKVSCKASGYTFTSYAMHWVKEAPGQRLEWIGYIYPGQGGTNYNQKFQGRATLTADTSASTAYMELSSLRSEDTAVYFCARTGGLRRAYFTYWGQGTLVTVSS
VL 3: DIVLTQSPATLSLSPGERATISCRASQSVSSYGQGFMHWYQQKPGQPPRLLIYGASSRATGIPARFSGSGSGTDFTLTISPLEPEDFAVYYCQQNKEDPWTFGGGTKLEIK
Kd [1]: 7.5 nM
Kd [2]: 4 nM
fold lower apparent affinity than the parental antiCD38_C2-CD38-1_VH1-VL1 antibody [3]: 7.5 fold
Kd [4]: 23 nM
Kd [5]: 4 nM
Kd [6]: 18 nM
Kd [7]: 4.4 nM
fold lower apparent affinity than the parental antiCD38_C2-CD38-1_VH1-VL1 antibody [8]: 9 fold

B2: CD38SB19xCD28supxCD3mid trispecific binding protein (other)
VH 1: QVQLVQSGAEVVKPGASVKVSCKASGYTFTSYYIHWVRQAPGQGLEWIGSIYPGNVNTNYAQKFQGRATLTVDTSISTAYMELSRLRSDDTAVYYCTRSHYGLDWNFDVWGKGTTVTVSS
VL 1: DIQMTQSPSSLSASVGDRVTITCQASQNIYVWLNWYQQKPGKAPKLLIYKASNLHTGVPSRFSGSGSGTDFTLTISSLQPEDIATYYCQQGQTYPYTFGQGTKLEIK
VH 2: B1 VH 2
VL 2: B1 VL 2
VH 3: QVQLVQSGAEVAKPGTSVKLSCKASGYTFTDYWMQWVKQRPGQGLEWIGTIYPGDGDTGYAQKFQGKATLTADKSSKTVYMHLSSLASEDSAVYYCARGDYYGSNSLDYWGQGTSVTVSS
VL 3: DIVMTQSHLSMSTSLGDPVSITCKASQDVSTVVAWYQQKPGQSPRRLIYSASYRYIGVPDRFTGSGAGTDFTFTISSVQAEDLAVYYCQQHYSPPYTFGGGTKLEIK
Kd [9]: 2.42 nM
Kd [10]: 1.75 nM
Kd [11]: 4 nM

B3: antiCD38_C2-CD38-1_VH6-VL3 (antibody, human IgG1, kappa, V domains shown)
VH: B1 VH 3 with V20M, Y32F, A33N, Q55N, L83I
VL: DIVLTQSPATLSLSPGERATISCRASESVDSYGNGFMHWYQQKPGQPPRLLIYLASSRATGIPARFSGSGSGTDFTLTISPLEPEDFAVYYCQQNKEDPWTFGGGTKLEIKR
Kd (cCD38-his (SEQ ID NO: 4)): 0.56 nM
Kd (hCD38-his (SEQ ID NO: 2)): 0.31 nM

B4: antiCD38_C2-CD38-1_VH5-VL3 (antibody, human IgG1, kappa, V domains shown)
VH: B1 VH 3 with P14S, Y32F, A33N, R44G, Q55N, L83I
VL: B3 VL
Kd [12]: 0.55 nM
Kd (hCD38-his (SEQ ID NO: 2)): 0.82 nM
